In doi:10.1101/2021.07.27.453956 (bioRxiv, 2021):

B2: TwinStrep-MBP-Panx, full length, recombinant (SFiNX subunit) (natural protein)
chain: MEAPMKLEVKVENYVECGINEDEATPLREGTGETPPHAFACGVPMSGSGWCSDPEDGNLVHHSATPTSDEHLQPSLDTIEPKMEPKIKEDADNAMLDSLLADPFENNSPATLQTPADVKPNAMLDSVEQGSRSCELLPSEFSKRENLDDMDLFSLKAAKTLVPDEQQSFPQNDTPIDDPEAADLIAQKREILKMLEMTAENRKVKHKKKKHKKERSHRSNKHQEESRKRNHSNSSSDEGADDKNQFDCDYRGHKKYKNRRGSASSQNESSKERKLRDTELDYVPVRPDEHFIRPIKFSNLIERRPPQVEFNTVNLSKADKRSLAVARAELVLEQIQQKANKEEPPEFHMVDTICKLPVNESFRNQDCFENPSPICNNMNVVYKFNSTPGTRIDLSKWGLETVPEATKRLLRLLGIDVARLKELQSTVKPSQRILKLKKEQLEQGLAPTEEQETATLYKNAATQTERRTATRDAGTQVRLESKLNGAFWQNPHFDPMNLTQHQSNVMLALQEIYQTLPSATMAVKLSRALAPALAIIKGRQP

Experiments:
[1] = target: Sov NTD (aa 14-90), C-terminal His tagged (D. melanogaster); test: ITC
[2] = target: B2; test: co-purification of a recombinant complex
[3] = target: Nxf2–Nxt1 heterodimer, recombinant (SFiNX subunits) (Drosophila, UniProt Q9VV73;Q9V3H8); test: co-purification of a recombinant complex
Sequence of Nxf2–Nxt1 heterodimer, recombinant (SFiNX subunits) (Q9VV73 whole entry, one chain of several): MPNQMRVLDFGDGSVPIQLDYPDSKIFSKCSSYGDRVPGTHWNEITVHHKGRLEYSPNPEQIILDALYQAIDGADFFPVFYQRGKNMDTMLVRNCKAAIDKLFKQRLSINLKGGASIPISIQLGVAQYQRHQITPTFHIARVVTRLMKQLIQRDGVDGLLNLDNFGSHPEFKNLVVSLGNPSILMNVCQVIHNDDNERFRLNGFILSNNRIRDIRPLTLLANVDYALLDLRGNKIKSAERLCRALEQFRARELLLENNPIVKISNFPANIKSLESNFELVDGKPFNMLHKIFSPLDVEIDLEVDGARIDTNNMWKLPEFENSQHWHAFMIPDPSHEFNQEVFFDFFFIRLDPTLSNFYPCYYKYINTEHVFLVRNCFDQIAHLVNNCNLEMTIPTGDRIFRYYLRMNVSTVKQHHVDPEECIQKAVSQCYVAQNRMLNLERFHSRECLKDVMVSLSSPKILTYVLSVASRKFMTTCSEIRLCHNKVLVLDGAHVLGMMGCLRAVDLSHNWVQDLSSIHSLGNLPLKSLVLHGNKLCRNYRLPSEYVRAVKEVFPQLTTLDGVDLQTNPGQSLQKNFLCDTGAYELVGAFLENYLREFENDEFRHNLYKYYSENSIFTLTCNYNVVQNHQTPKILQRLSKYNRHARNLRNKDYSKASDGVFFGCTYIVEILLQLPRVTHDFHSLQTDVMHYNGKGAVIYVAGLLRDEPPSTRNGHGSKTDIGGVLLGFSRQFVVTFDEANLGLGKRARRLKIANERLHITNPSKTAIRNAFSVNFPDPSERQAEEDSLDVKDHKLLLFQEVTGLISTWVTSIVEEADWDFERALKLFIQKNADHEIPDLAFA

His-SUMO tagged Panx LxxLL peptide (aa 82-108), wildtype (from UniProt Q9W2H9 82-108)
Kd [1]: 870 nM

B1: His6-Ctp, recombinant (SFiNX subunit) (natural protein)
chain: MSDRKAVIKNADMSEEMQQDAVDCATQALEKYNIEKDIAAYIKKEFDKKYNPTWHCIVGRNFGSYVTHETRHFIYFYLGQVAILLFKSG
binding result [2]: binds

B2
binding result [3]: binds
